Drawing on article PMC8246987, this text covers stoichiometry N for 1 molecule.

In this experiment the target is T1, DJ‐1 (human (endogenous in HEK‐293)), Q99497.
T1 chain: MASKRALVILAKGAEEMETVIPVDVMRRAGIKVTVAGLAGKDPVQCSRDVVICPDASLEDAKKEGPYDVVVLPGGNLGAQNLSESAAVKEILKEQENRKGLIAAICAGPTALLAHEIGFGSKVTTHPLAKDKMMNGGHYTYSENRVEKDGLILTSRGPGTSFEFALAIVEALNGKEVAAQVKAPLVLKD
Kind of experiment: cross-linking. The conditions noted are these: remark: other sources report otherwise.

B1: DJ‐1, Q99497 1-189 (natural protein)
chain: MASKRALVILAKGAEEMETVIPVDVMRRAGIKVTVAGLAGKDPVQCSRDVVICPDASLEDAKKEGPYDVVVLPGGNLGAQNLSESAAVKEILKEQENRKGLIAAICAGPTALLAHEIGFGSKVTTHPLAKDKMMNGGHYTYSENRVEKDGLILTSRGPGTSFEFALAIVEALNGKEVAAQVKAPLVLKD
B1: the stoichiometry N is 2.
